The values below come from the supplement of paper PMC10126150.

± gives the standard deviation of the averaged measurements.
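Note: ATP exposure 15 min at 22 °C before imaging.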

In this series the test system is ATP. The series can be described thus: switch fluorescence ratio, 500 uM ATP over buffer (Cy3 cluster intensity, sum of 5 cycles each) (fold (ratio)); higher = stronger signal-on switching upon ATP binding; sequences stand for … in TCGTCGGCAGCGTCAGATGTGTATAAGAGACAGTTTTTTTTTTTTTTTTTTTTTTTTT…TC. As to conditions: aptamer strand: ATP DNA aptamer (quencher-CACCTGGGGGAGTATTGCGGAGGAAGG + anchor), 100 nM annealed; ATP concentration: 500 uM. Summed up: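 Values give the fluorescence ratio for each switch-domain sequence, averaged from per-cluster ratios of summed target-cycle to summed buffer-cycle Cy3 intensity. The Cy3-labelled switching-strand clusters sat on a modified Illumina MiSeq flow-cell, were annealed to 100 nM quencher-labelled ATP aptamer, and were imaged in selection buffer, then after 15 min with 500 uM ATP at 22 °C. Five cycles ran with NaOH stripping and re-annealing between them, and clusters outside 100-1000 RFU were excluded.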
On to TAAGTATGTC, for which the switch fluorescence ratio was determined as 0.995 ± 0.01.

With TTAAGGCACG, the switch fluorescence ratio amounted to 0.999 ± 0.017.

For CAATGTGGGT, the switch fluorescence ratio came out at 0.986 ± 0.0086.

Turning to TCACTGGGTT, the switch fluorescence ratio is 1.01 ± 0.068.

Turning to TTAATTTCGG, the switch fluorescence ratio came out at 0.991 ± 0.065.

Regarding GAAAAAGGTG, the switch fluorescence ratio turned out to be 1.1 ± 0.028.

CGATCTTACG: the switch fluorescence ratio is 0.9935 ± 0.0069.

Regarding CTTTGTATGG, the switch fluorescence ratio came to 1 ± 0.017.

As to ACCGTGAAGG, the switch fluorescence ratio is 0.99924 ± 8.2e-05.

Take GGTAAAAGGT: the switch fluorescence ratio was 1.02 ± 0.051.

Regarding GAAAATGTTT, the switch fluorescence ratio worked out at 1.0053 ± 2.1e-05.

As for ACAACTCAGG, the switch fluorescence ratio is 1.22 ± 0.022.

As for CGTATTGGGC, the switch fluorescence ratio stood at 0.9577 ± 0.0065.

For the sequence AAGCACTAGG, the switch fluorescence ratio came out at 1.1916 ± 0.0011.

Take GATCTCAGTT: the switch fluorescence ratio was found to be 1.02 ± 0.036.

In the case of GCCATCACGC, the switch fluorescence ratio came out at 0.9836 ± 0.006.

In the case of GTAGTATTGG, the switch fluorescence ratio was 0.982 ± 0.028.

As to TCCAGGGTCA, the switch fluorescence ratio is 1.01 ± 0.025.

Consider GGGGCTAGTA, for which the switch fluorescence ratio was 0.991 ± 0.035.

For the sequence CCTCTATATT, the switch fluorescence ratio was 1.181 ± 0.011.

For the sequence AGGAGGTATT, the switch fluorescence ratio was 0.99 ± 0.026.

On to TTATGAGTTT, for which the switch fluorescence ratio came out at 0.988 ± 0.036.

With AAGCCTGAGG, the switch fluorescence ratio was 1.015 ± 0.0084.

In the case of AGGTCGGGGA, the switch fluorescence ratio came out at 1.05 ± 0.056.

As for TCAACCGGGA, the switch fluorescence ratio was 1.06 ± 0.09.

In the case of GTTGAGGGTA, the switch fluorescence ratio was determined as 1 ± 0.034.

Turning to GCCATTCATC, the switch fluorescence ratio turned out to be 1.02 ± 0.017.

In the case of GCTTTGGCTT, the switch fluorescence ratio is 1 ± 0.03.

In the case of GTTTAGTC, the switch fluorescence ratio came to 0.976 ± 0.025.

Regarding CAATGTCACC, the switch fluorescence ratio was found to be 1.06 ± 0.019.

As to TGGTAGTTCG, the switch fluorescence ratio is 1.01 ± 0.046.

On to GAGGGCATGA, for which the switch fluorescence ratio came out at 0.993 ± 0.074.

For TAATTGTGTG, the switch fluorescence ratio is 1 ± 0.038.

As for AATTAAAGGG, the switch fluorescence ratio turned out to be 1.03 ± 0.066.

For the sequence AGGGCGTCTC, the switch fluorescence ratio stood at 0.981 ± 0.043.

In the case of CATTACAACA, the switch fluorescence ratio amounted to 1.02 ± 0.059.

ATGGGGCAGC: the switch fluorescence ratio was determined as 1 ± 0.025.

For AGGTGGGGAG, the switch fluorescence ratio was determined as 0.998 ± 0.041.

Turning to CGGAATTTC, the switch fluorescence ratio is 1.11 ± 0.05.

Turning to TCATTTCGGG, the switch fluorescence ratio worked out at 0.991 ± 0.038.

Turning to GCTATATTTG, the switch fluorescence ratio was 1.01 ± 0.013.

For TTAAGATGTT, the switch fluorescence ratio is 0.993 ± 0.016.

On to TATGTCCGTA, for which the switch fluorescence ratio amounted to 1 ± 0.013.

On to TGGGAAATGT, for which the switch fluorescence ratio turned out to be 1.1 ± 0.23.

In the case of TGTTGGTAGG, the switch fluorescence ratio came to 0.964 ± 0.03.

Regarding GTAAGGTAAG, the switch fluorescence ratio is 1.05 ± 0.015.

For ATAAGTGCAA, the switch fluorescence ratio amounted to 1.06 ± 0.011.

As for TAATTGGTGT, the switch fluorescence ratio turned out to be 1.02 ± 0.043.

On to AAGTTTGGGA, for which the switch fluorescence ratio amounted to 1.07 ± 0.091.

For the sequence TTTACGGGAA, the switch fluorescence ratio worked out at 1.05 ± 0.007.

In the case of TGCAGTCTGT, the switch fluorescence ratio was found to be 0.988 ± 0.034.

Regarding CCATGGGGCT, the switch fluorescence ratio turned out to be 1.29 ± 0.46.

On to TAGGAGGGA, for which the switch fluorescence ratio stood at 1 ± 0.024.

As for CAATGGGGGT, the switch fluorescence ratio turned out to be 1 ± 0.038.

Regarding TGCATGGGGG, the switch fluorescence ratio is 0.999 ± 0.044.

In the case of TTTGAAAAGC, the switch fluorescence ratio came to 0.986 ± 0.018.

In the case of GGGGCCCGGG, the switch fluorescence ratio is 1.04 ± 0.036.

With TGGGAGGGAG, the switch fluorescence ratio turned out to be 0.987 ± 0.028.

With TTAGAGGCAT, the switch fluorescence ratio is 1.05 ± 0.066.

On to ACGAGTGGCG, for which the switch fluorescence ratio is 0.933 ± 0.021.

Consider AGCGGTGTGC, for which the switch fluorescence ratio turned out to be 0.9738 ± 0.0031.

Turning to CAATGAGAGA, the switch fluorescence ratio amounted to 0.9792 ± 0.0083.

Consider CGGGTTCTAT, for which the switch fluorescence ratio came out at 0.977 ± 0.036.

As to CGGATACGGT, the switch fluorescence ratio came to 0.997 ± 0.04.

For the sequence GTTCTTTTTC, the switch fluorescence ratio amounted to 0.978 ± 0.019.

With GACTTGTAGG, the switch fluorescence ratio worked out at 0.9844 ± 0.0049.

On to TAGGGCAGAG, for which the switch fluorescence ratio was 0.994 ± 0.021.

Consider TTTCATTTTG, for which the switch fluorescence ratio came out at 1.03 ± 0.017.

TCGGGGGCTG: the switch fluorescence ratio amounted to 0.9799 ± 0.0077.

With GTTGTTTGCG, the switch fluorescence ratio turned out to be 0.953 ± 0.023.

On to TGGATAAGTT, for which the switch fluorescence ratio was 1.03 ± 0.025.

As to ATGAGTGTGG, the switch fluorescence ratio amounted to 1.02 ± 0.021.

As for TTTGACAAAC, the switch fluorescence ratio was found to be 1.1 ± 0.073.

As to AGCGGATTCT, the switch fluorescence ratio came to 0.984 ± 0.041.

GGGGAAACGT: the switch fluorescence ratio turned out to be 1.12 ± 0.035.

For CTTTTACCAA, the switch fluorescence ratio worked out at 0.992 ± 0.046.

As to TCTTGGGGT, the switch fluorescence ratio stood at 1.06 ± 0.15.

As for CGTCAACAGG, the switch fluorescence ratio stood at 1.28 ± 0.062.
